According to paper PMC10397247:
Values belong to the binder of their own block, whether it stands above or below them.

Legend:
4H56-bA = target: T1, 4H56-bA; assay: two-hybrid library CCNG1;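 also: natural log of median RNA to DNA barcode read ratio; higher means stronger binding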
T1 chain: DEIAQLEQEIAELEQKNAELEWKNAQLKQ

4H264-bA = target: T2, 4H264-bA; assay: two-hybrid library CCNG1;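 also: natural log of median RNA to DNA barcode read ratio; higher means stronger binding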
T2 chain: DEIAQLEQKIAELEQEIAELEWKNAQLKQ

4H2518-bA = target: T3, 4H2518-bA; assay: two-hybrid library CCNG1;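 also: natural log of median RNA to DNA barcode read ratio; higher means stronger binding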
T3 chain: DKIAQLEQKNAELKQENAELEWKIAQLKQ

4H235-bA = target: T4, 4H235-bA; assay: two-hybrid library CCNG1;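 also: natural log of median RNA to DNA barcode read ratio; higher means stronger binding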
T4 chain: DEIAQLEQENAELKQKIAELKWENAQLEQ

4H2444-bA = target: T5, 4H2444-bA; assay: two-hybrid library CCNG1;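 also: natural log of median RNA to DNA barcode read ratio; higher means stronger binding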
T5 chain: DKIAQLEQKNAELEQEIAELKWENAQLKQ

4H3381-bA = target: T6, 4H3381-bA; assay: two-hybrid library CCNG1;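 also: natural log of median RNA to DNA barcode read ratio; higher means stronger binding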
T6 chain: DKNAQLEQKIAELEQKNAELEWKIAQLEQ

4H349-bA = target: T7, 4H349-bA; assay: two-hybrid library CCNG1
T7 chain: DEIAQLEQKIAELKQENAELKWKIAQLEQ

P6bH1 = target: T8, P6bH1; assay: two-hybrid library CCNG1
T8 chain: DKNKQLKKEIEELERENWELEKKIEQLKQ

4H796-bA = target: T9, 4H796-bA; assay: two-hybrid library CCNG1
T9 chain: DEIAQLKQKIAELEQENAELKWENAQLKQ

4H2859-bA = target: T10, 4H2859-bA; assay: two-hybrid library CCNG1
T10 chain: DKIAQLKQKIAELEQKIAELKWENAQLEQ

4H932-bA = target: T11, 4H932-bA; assay: two-hybrid library CCNG1
T11 chain: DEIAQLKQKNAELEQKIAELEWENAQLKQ

4H730-bA = target: T12, 4H730-bA; assay: two-hybrid library CCNG1
T12 chain: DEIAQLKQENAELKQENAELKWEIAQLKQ

4H3297-bA = target: T13, 4H3297-bA; assay: two-hybrid library CCNG1
T13 chain: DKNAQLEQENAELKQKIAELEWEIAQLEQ

4H2585-bA = target: T14, 4H2585-bA; assay: two-hybrid library CCNG1
T14 chain: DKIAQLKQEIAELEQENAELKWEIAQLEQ

4H2253-bA = target: T15, 4H2253-bA; assay: two-hybrid library CCNG1
T15 chain: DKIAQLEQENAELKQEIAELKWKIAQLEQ

4H3364-bA = target: T16, 4H3364-bA; assay: two-hybrid library CCNG1
T16 chain: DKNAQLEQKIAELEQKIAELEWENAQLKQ

4H949-bA = target: T17, 4H949-bA; assay: two-hybrid library CCNG1
T17 chain: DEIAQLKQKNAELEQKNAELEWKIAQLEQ

4H3041-bA = target: T18, 4H3041-bA; assay: two-hybrid library CCNG1
T18 chain: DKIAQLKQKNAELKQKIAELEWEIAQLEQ

4H2931-bA = target: T19, 4H2931-bA; assay: two-hybrid library CCNG1
T19 chain: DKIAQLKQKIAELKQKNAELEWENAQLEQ

4H2760-bA = target: T20, 4H2760-bA; assay: two-hybrid library CCNG1
T20 chain: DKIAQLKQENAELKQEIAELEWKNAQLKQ

4H_GCN4 = assay: two-hybrid library CCmax
4H2774-AA = target: T21, 4H2774-AA; assay: two-hybrid library CCmax; settings: mean of both orientations
T21 chain: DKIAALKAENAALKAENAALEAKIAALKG

4H347-AA = target: T22, 4H347-AA; assay: two-hybrid library CCmax; settings: mean of both orientations
T22 chain: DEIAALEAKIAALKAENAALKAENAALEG

4H249-AA = target: T23, 4H249-AA; assay: two-hybrid library CCmax; settings: mean of both orientations
T23 chain: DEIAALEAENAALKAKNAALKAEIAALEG

4H2165-AA = target: T24, 4H2165-AA; assay: two-hybrid library CCmax; settings: mean of both orientations
T24 chain: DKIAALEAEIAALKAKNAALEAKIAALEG

4H406-AA = target: T25, 4H406-AA; assay: two-hybrid library CCmax; settings: mean of both orientations
T25 chain: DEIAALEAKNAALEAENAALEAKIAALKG

4H452-AA = target: T26, 4H452-AA; assay: two-hybrid library CCmax; settings: mean of both orientations
T26 chain: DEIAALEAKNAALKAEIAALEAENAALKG

4H1930-AA = target: T27, 4H1930-AA; assay: two-hybrid library CCmax; settings: mean of both orientations
T27 chain: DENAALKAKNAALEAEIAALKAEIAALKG

4H2732-AA = target: T28, 4H2732-AA; assay: two-hybrid library CCmax; settings: mean of both orientations
T28 chain: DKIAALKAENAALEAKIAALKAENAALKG

4H3438-AA = target: T29, 4H3438-AA; assay: two-hybrid library CCmax; settings: mean of both orientations
T29 chain: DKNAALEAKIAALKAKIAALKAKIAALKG

4H3073-AA = target: T30, 4H3073-AA; assay: two-hybrid library CCmax; settings: mean of both orientations
T30 chain: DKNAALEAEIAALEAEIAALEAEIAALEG

4H2343-AA = target: T31, 4H2343-AA; assay: two-hybrid library CCmax; settings: mean of both orientations
T31 chain: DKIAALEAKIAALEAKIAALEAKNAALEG

4H_APH = target: T32, 4H_APH; assay: two-hybrid library CCmax
T32 chain: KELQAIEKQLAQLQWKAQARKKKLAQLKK

4H2931-AA = target: T33, 4H2931-AA; assay: two-hybrid library CCmax; settings: mean of both orientations
T33 chain: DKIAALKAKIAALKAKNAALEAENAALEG

4H1828-AA = target: T34, 4H1828-AA; assay: two-hybrid library CCmax
T34 chain: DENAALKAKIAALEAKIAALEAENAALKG

GCN2_T = assay: two-hybrid library CCmax
4H2592-AA = target: T35, 4H2592-AA; assay: two-hybrid library CCmax; settings: mean of both orientations
T35 chain: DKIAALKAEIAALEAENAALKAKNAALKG

4H3015-AA = target: T36, 4H3015-AA; assay: two-hybrid library CCmax; settings: mean of both orientations
T36 chain: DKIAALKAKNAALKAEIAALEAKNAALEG

4H_BCR = target: T37, 4H_BCR; assay: two-hybrid library CCmax; settings: mean of both orientations
T37 chain: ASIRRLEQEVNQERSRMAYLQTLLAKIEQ

4H2466-AA = target: T38, 4H2466-AA; assay: two-hybrid library CCmax; settings: mean of both orientations
T38 chain: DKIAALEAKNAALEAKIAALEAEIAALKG

4H2330-AA = target: T39, 4H2330-AA; assay: two-hybrid library CCmax; settings: mean of both orientations
T39 chain: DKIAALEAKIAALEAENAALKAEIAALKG

4H56-AA = target: T40, 4H56-AA; assay: two-hybrid library CCmax; settings: mean of both orientations
T40 chain: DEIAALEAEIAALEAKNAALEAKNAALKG

4H2253-AA = target: T41, 4H2253-AA; assay: two-hybrid library CCmax; settings: mean of both orientations
T41 chain: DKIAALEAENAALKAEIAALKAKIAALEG

4H2124-AA = target: T42, 4H2124-AA; assay: two-hybrid library CCmax; settings: mean of both orientations
T42 chain: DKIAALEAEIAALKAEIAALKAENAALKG

4H3001-AA = target: T43, 4H3001-AA; assay: two-hybrid library CCmax; settings: mean of both orientations
T43 chain: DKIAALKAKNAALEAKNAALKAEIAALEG

Sequence of 4H_GCN4 (chain, as listed by the source): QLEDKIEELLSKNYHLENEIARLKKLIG

interaction score (4H56-bA): -0.0723
interaction score (4H264-bA): -0.996
interaction score (4H2518-bA): 0.247
interaction score (4H235-bA): 0.641
interaction score (4H2444-bA): 0.026
interaction score (4H3381-bA): -0.743
interaction score (4H349-bA): -0.459
interaction score (P6bH1): -1.05
interaction score (4H796-bA): -1.65
interaction score (4H2859-bA): -0.839
interaction score (4H932-bA): -0.529
interaction score (4H730-bA): -0.707
interaction score (4H3297-bA): 0.145
interaction score (4H2585-bA): -0.557
interaction score (4H2253-bA): 1.28
interaction score (4H3364-bA): -0.504
interaction score (4H949-bA): -0.968
interaction score (4H3041-bA): 0.651
interaction score (4H2931-bA): -0.566
interaction score (4H2760-bA): 0.778
Binder: DKIAQLEQENAELKQEIAELKWKIAQLEQ [4H2253-bA]

interaction score (4H_GCN4): -2.2
interaction score (4H2774-AA): -1.37
interaction score (4H347-AA): -0.947
interaction score (4H249-AA): -1.5
interaction score (4H2165-AA): -1.37
interaction score (4H406-AA): -1.44
interaction score (4H452-AA): -1.35
interaction score (4H1930-AA): -1.5
interaction score (4H2732-AA): -1.51
interaction score (4H3438-AA): -1.01
interaction score (4H3073-AA): -1.08
interaction score (4H2343-AA): -1.69
interaction score (4H_APH): -1.13
interaction score (4H2931-AA): -2.02
interaction score (4H1828-AA): 1.34
interaction score (GCN2_T): -2.49
interaction score (4H2592-AA): -0.581
interaction score (4H3015-AA): -1.83
interaction score (4H_BCR): -2.28
interaction score (4H2466-AA): -1.4
interaction score (4H2330-AA): -1.45
interaction score (4H56-AA): -1.03
interaction score (4H2253-AA): -1.32
interaction score (4H2124-AA): -1.65
interaction score (4H3001-AA): -1.55
Binder: DENAALKAKIAALEAKIAALEAENAALKG [4H1828-AA]
